Data from patent US8372950B2, “IgG binding peptide” (Kagoshima University, priority 2006, dated 2013).

Assay: molecular sieve chromatography of acid-denatured MRA
Assay type: physicochemical
Conditions: acid treated pH 2.7, 30° C., 10 minutes, purified on IMGpep-4K6R column, FIG. 15C
Method: First, 20 μl of 1 M glycine-HCl (pH 2.7) was added to 200 μl of humanized anti-human IL-6 receptor IgG antibody (MRA) (2000 μg/ml, PBS solution). The solution was incubated for 10 minutes at 30° C. and then 30 μl of 1 M Tris-HCl (pH 8.7) was added thereto for neutralization to prepare an acid-treated antibody sample. Also, a biotinylated IMGPep-4K6R peptide-immobilized column was prepared in a manner similar to that in Example 10. An acid-treated antibody sample was injected at a flow rate of 0.4 ml/min to the column and then gradient elution was carried out using from 20 mM phosphate buffered saline (PBS, pH 7.0) containing 0.1M NaCl to 0.1M glycine-HCl (pH 2.5) containing 0.1M NaCl. The thus eluted IgG was a purified acid-denatured humanized anti-human IL-6 receptor IgG antibody (MRA).
Subsequently, the purified acid-denatured MRA was subjected to molecular sieve chromatography using a HiLoad Sperdex 200 16/60 column (GE Healthcare). Similarly, untreated MRA, an acid-treated antibody sample, and a flow-through fraction (undenatured MRA) obtained via injection of an acid-treated antibody sample to a biotinylated IMGPep-4K6R peptide-immobilized column, were also separately subjected to molecular sieve chromatography using a HiLoad Sperdex 200 16/60 column (GE Healthcare). […]

MRA: Humanized anti-human IL-6 receptor monoclonal IgG antibody, Chugai Pharmaceutical
monomers in purified acid-denatured MRA: approximately 65%
